The values that follow come from patent US20100143440A1, “UL97 INHIBITORS FOR TREATMENT OF PROLIFERATIVE DISORDERS” (The UAB Research Foundation, priority 2007, published 2010).

Substitutions are numbered along the chain they refer to. Numbers in names are those of the source. Where two headings read alike, the source gives them in different places.

One series concerns GS strain of HHV-6A. The series can be described thus: Efficacy against HHV-6A in HSB-2 cells with reduced serum. Type of series: cell-based. The note with it: for EC50: HSB2, HHV-6A in HSB-2 cells, read-out: EC50. The procedure:
The activity of MBV was evaluated against the GS strain of HHV-6A in HSB-2 cells with reduced serum to slow the growth of lymphocytes.

Series [1] deals with RB tumor suppressor (retinoblastoma protein), endogenous in infected human foreskin fibroblast (HFF) cells (UniProt P06400).
The target of series [2] is T1, RB tumor suppressor (retinoblastoma protein), endogenous in infected human foreskin fibroblast (HFF) cells, P06400.
T1 chain: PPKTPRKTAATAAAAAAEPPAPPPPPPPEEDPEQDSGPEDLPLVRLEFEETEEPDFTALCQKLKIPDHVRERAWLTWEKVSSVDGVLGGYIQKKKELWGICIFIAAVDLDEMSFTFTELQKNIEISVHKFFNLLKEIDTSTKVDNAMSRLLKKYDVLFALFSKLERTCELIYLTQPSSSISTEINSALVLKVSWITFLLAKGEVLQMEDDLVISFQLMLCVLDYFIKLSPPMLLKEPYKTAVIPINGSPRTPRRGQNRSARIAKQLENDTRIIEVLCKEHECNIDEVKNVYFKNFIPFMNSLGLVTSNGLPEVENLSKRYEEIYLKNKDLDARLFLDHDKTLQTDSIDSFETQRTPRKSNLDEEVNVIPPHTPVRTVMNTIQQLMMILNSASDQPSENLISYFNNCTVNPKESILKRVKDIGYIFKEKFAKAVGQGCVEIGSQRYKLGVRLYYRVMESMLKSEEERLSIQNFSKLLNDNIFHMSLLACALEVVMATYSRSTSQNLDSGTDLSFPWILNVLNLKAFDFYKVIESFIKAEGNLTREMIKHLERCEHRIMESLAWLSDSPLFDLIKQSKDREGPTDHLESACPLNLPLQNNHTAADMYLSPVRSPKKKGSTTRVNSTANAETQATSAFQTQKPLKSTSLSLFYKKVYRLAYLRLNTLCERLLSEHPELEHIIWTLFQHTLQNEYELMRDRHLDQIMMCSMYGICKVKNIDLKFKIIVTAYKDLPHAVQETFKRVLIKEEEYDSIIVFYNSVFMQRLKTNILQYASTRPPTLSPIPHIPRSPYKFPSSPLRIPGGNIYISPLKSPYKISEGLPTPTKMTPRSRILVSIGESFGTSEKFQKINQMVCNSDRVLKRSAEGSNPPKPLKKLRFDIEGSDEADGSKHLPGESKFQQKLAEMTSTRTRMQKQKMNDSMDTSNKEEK

Series [3] has as its target T2, epitope tagged (V5) UL89 fusion protein (negative control) (UniProt P16732 1-674).
T2 construct: Negative control in the Rb pull-down; also called pUL89
T2 sequence: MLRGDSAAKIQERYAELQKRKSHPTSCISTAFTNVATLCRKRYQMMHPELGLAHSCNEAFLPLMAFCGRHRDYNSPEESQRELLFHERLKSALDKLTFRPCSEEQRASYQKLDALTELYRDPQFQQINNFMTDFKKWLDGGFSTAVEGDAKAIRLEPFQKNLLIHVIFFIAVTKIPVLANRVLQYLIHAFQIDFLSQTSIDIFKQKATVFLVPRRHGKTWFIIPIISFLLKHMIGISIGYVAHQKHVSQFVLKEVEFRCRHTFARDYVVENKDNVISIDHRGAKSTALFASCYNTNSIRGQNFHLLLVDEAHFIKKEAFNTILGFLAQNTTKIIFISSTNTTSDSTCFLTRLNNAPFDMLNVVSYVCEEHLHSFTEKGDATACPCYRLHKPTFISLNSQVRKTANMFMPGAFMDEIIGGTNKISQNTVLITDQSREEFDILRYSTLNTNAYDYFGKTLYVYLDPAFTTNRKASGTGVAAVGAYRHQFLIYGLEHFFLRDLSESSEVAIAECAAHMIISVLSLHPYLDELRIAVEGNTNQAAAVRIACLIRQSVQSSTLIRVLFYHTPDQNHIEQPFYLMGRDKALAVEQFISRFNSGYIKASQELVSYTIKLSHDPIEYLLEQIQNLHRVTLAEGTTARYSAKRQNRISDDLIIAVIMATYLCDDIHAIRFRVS
The series can be described thus: pull-down of recombinant Rb by V5-immunoprecipitated protein on Protein A sepharose beads, immunoblot for Rb.

The target of series [4] is T3, epitope tagged (V5) UL104 fusion protein (negative control) (UniProt P16735 1-697).
T3 construct: Negative control in the Rb pull-down; also called pUL104
T3 sequence: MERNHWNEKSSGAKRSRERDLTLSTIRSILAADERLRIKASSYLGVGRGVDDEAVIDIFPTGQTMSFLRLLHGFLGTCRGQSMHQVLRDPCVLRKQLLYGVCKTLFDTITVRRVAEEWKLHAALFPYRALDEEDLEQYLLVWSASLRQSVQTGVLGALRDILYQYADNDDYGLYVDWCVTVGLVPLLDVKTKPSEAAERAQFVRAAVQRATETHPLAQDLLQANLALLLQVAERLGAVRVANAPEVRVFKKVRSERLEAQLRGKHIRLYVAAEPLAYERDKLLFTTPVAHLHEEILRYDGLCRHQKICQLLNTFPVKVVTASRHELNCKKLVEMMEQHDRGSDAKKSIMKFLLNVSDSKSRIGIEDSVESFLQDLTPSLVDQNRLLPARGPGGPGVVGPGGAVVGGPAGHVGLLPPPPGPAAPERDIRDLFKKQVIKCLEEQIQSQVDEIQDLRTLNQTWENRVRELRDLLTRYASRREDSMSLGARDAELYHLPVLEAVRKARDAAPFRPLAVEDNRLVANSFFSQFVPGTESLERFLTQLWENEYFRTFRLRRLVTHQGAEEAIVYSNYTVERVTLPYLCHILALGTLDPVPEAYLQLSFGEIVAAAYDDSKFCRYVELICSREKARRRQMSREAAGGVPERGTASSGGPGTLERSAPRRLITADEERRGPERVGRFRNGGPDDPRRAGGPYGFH
The description is as above.

For `Nc1ccn(C[C@@H](CO)OCP(=O)(O)O)c(=O)n1` [cidofovir], the “EC50 values under conditions of reduced serum” value with GS strain of HHV-6A (GS strain of HHV-6A, HSB-2 cells, reduced serum) was “unaffected”. Further, the EC50 came to 1100 nM with GS strain of HHV-6A (2% FBS), 1200 nM in the series with GS strain of HHV-6A (5% FBS) and 1400 nM with GS strain of HHV-6A (10% FBS).
Turning to pUL97 K355M of recombinant virus RC314, in series [1], the “RB stabilization, western blot of lysates 24 hours after infection” value was “This did not occur when cells were infected with the K355M mutant”; the “phosphorylation of RB on serine 780, western blot with specific antisera” value was “The phosphorylation of serine 780 was reduced in the K355M and C151G mutants relative to the wild-type virus and resembled levels seen in uninfected cells”.

B1: pUL97 of the wild-type virus HB5 (HCMV BAC strain) (protein)
chain: MSSALRSRARSASLGTTTQGWDPPPLRRPSRARRRQWMREAAQAAAQAAVQAAQAAAAQVAQAHVDENEVVDLMADEAGGGVTTLTTLSSVSTTTVLGHATFSACVRSDVMRDGEKEDAASDKENLRRPVVPSTSSRGSAASGDGYHGLRCRETSAMWSFEYDRDGDVTSVRRALFTGGSDPSDSVSGVRGGRKRPLRPPLVSLARTPLCRRRVGGVDAVLEENDVELRAESQDSAVASGPGRIPQPLSGSSGEESATAVEADSTSHDDVHCTCSNDQIITTSIRGLTCDPRMFLRLTHPELCELSISYLLVYVPKEDDFCHKICYAVDMSDESYRLGQGSFGEVWPLDRYRVVKVARKHSETVLTVWMSGLIRTRAAGEQQQPPSLVGTGVHRGLLTATGCCLLHNVTVHRRFHTDMFHHDQWKLACIDSYRRAFCTLADAIKFLNHQCRVCHFDITPMNVLIDVNPHNPSEIVRAALCDYSLSEPYPDYNERCVAVFQETGTARRIPNCSHRLRECYHPAFRPMPLQKLLICDPHARFPVAGLRRYCMSELSALGNVLGFCLMRLLDRRGLDEVRMGTEALLFKHAGAACRALENGKLTHCSDACLLILAAQMSYGACLLGEHGAALVSHTLRFVEAKMSSCRVRAFRRFYHECSQTMLHEYVRKNVERLLATSDGLYLYNAFRRTTSIICEEDLDGDCRQLFPE
B1: in series [2], the “RB stabilization, western blot of lysates 24 hours after infection” value is reported as “Cells infected with the wild-type virus stabilized RB”.

B2: pUL97 C151G of recombinant virus RC295 (protein)
chain: B1 chain with C151G
Consider B2, for which, in series [2], the “RB accumulation, western blot of lysates 24 hours after infection” value is “The accumulation of RB was reduced in the C151G mutant”; the “phosphorylation of RB on serine 780, western blot with specific antisera” value was “The phosphorylation of serine 780 was reduced in the K355M and C151G mutants relative to the wild-type virus and resembled levels seen in uninfected cells”.

B3: recombinant protein consisting of the carboxyl terminus of Rb fused to the maltose binding protein (Cell Signaling Technology) (other)
chain: DQIMMCSMYGICKVKNIDLKFKIIVTAYKDLPHAVQETFKRVLIKEEEYDSIIVFYNSVFMQRLKTNILQYASTRPPTLSPIPHIPRSPYKFPSSPLRIPGGNIYISPLKSPYKISEGLPTPTKMTPRSRILVSIGESFGTSEKFQKINQMVCNSDRVLKRSAEGSNPPKPLKKLRFDIEGSDEADGSKHLPGESKFQQKLAEMTSTRTRMQKQKMNDSMDTSNKEEK
notes: domain: carboxyl terminus; Bought fusion protein; also called recombinant Rb; recombinant Rb protein
As to B3, the binding result in series [3] and in series [4] was “no binding” throughout.
